Assay: soluble fraction after stress (log2 fold change); higher = more stays soluble; pooled small domains, quantitative proteomics
Conditions: stress: pH 4
Outline: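 With high-throughput quantitative proteomics, pooled custom libraries of small protein domains were measured after pH 4 stress. Each domain's soluble amount after the stress gives a fold change taken as aggregation propensity. Higher log2 values mean more of the domain stayed soluble.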

Row | Sequence | soluble fraction (log2)
1 | HMPGRPSRISDAVKDQIDHDLRKNPRDLGYSQNLWDGKLLSHHLKERYQITLGIRQAQRLFHQLGFRQR | -0.0409
2 | HMHQAVTVTKPARLFTGPDGKGVVRSLDVGMMLYPTGEKQGMMWEVEDELGNKGWVSSTLLELS | 0.197
3 | HMEPESTMIEISETLTNERLDRYLATKLPNVSRGGIQRLLREGNILVNGKKAKPTQHPVAGQKIEITWPNP | -0.11
4 | HMKNQQLFNIGDRFQVDGVAYRMEKLFPENGTVEVYNLGVGRHKTMSFEEILALWNSGKLLFEI | -0.945
5 | HMFIVTDQMQRVLDYITEKEKATNNDLEELLGVKSTRIYTITRKLIQHNLIIPVGKGKNKYYIL | -0.724
6 | HMGMESFWNRVANLLNTSTVVELAQILDVKRSTLSSWIHSDRRPPMEVLLKITRLTGVDIHRLE | -0.576
7 | HMVQISNTDDLYPIVQRIVDANPQSVEDYKNGKAKALGFLVGQMMKETKGKANPSMVNDLIIKAIEE | 0.0143
8 | HMSGFFVYPNPAKSNIIHFPNKKSFYIYDTSGRLLIEGKGKDFIDVSTLDRGVYLLKTFENDIVKIII | -0.585
9 | HMPGVLEVDTGGVAAVAYVDGVEVGRVPGELQIAAGTKTLMLKADRYLDYVQSLEIDGLGKRQLLVATLQS | -0.831
10 | HMDSALKDDLNAFVKKLDVESQTLFMRRYFLGESVSSLASRFEMSEDNVGVKLFRIRAKLKKYLTGKGYD | -0.445
11 | HMSQDTLIGRVGVIVIGQARTGSPAQVRVKDGFGQTHYVMAEPDSEGVLKQGEAVLLVSLEGNTFKAILNP | ≥ 0.43
12 | HMDSGLEQAKTAALENAELETSQVTFIKAELDYDDGKKVYEIEFVTSAMKYEYQVKADDFSILEMSKETIE | -0.129
13 | HMNGELSQRQWQILRLIAQGLSNEQMARQLFVAPSTIKTHINHLYAKLGVRTRAEAQAIARQKLMA | -0.0448
14 | HMASIATLTVKALGGASDVVIRDKDGRIIWADRLPAGQSHRVFGHAPFNVAASHASRVQLSLLGKDVGRV | -0.147
15 | HMKNTLDAYIRYLSNFLSRNNYPEAEDLSFINARADQAYEVFLEARRGGVDVSTAEELAMIALMQGY | -1.34
16 | HMLDLPVRTINGRQYYYYEVRNRETVYGLSKRLGVTREEIVRYNPSMADGLKRGAILYFPVDEFSDRI | -0.0139
17 | HMDYYKILGLSTSATLDQIKKAFRQLAIEFHPDKNPNNPTAEDKFQRISEAYAVLSNPEKRAEYDRSY | -0.17
18 | HMDSHSAESVRQRIKDMIAAEASKSILSDDTIVENLKSEGIEIARRTVAKYRESLNIPSSIQRRRIARSEA | 0.0843
19 | HMKIPYGELIKLLNAAAPKLQDAQGWMDMEAAGQFIGSRWSYLDYGFKDWPDSFKTVHGLEIQGQRMRLA | -0.306
20 | HMKQLIGYSVIDIKMGKLGEISFVNSKTAQALIHVSKDGKGFYFPWHKQFVKNIDAEKGIMEVEIPKEFLD | -0.85
21 | HMGTKRWELPRRVQQMATQHGKSISTAAAEELVSRSGENTRMLDNDLVKLAQMVEAPQIELADVERWIVR | 0.335
22 | HMGVKHKHKGAGELLAALRTMFPNSSVSTLRKMLTQGRVVLNGEVVHRAKHELTDGDTIEVLERQRAER | 0.228
23 | HMGNIYKALLGKLEKQLGFLPEGTKLPPEQELAEKFGVSKPTLRRALAELAVRGIIVKQNGIGSVVAGS | ≥ 0.43
24 | HMSSDDEAFKRELVGLIPHLRAFARTLTGDPTAADDLAQDAMMKAWDARASYQMGTNMKAWTFMILRNQFY | -1.65
25 | HMSNFGERLRALRQDRQMTLQQASKVTGVAQSTLSKMENNQLSPTFNLMQKLAIGLGIDMPQLFAPVK | -0.18
26 | HMVKNVVIPDVSNKAPVDASNQLTDLGFEVVTEYKYIASDTIEEGKVVKTSPEIGSKRKYGQKITLYISSG | 0.205
27 | HMKYNGDRPVFNDDVAWAKWMLENPAKITSHDKENLSSMLKKPEVVMLFEAEDLSVPDLRTLAKE | -0.349
28 | HMTIDNPESQKIMDMVPFFFQSRNYDEAIEALTYVIEQEPQFSEAYNKRATFYFMMGDLENSMKDIEITLA | -0.568

Row | Sequence | soluble fraction (log2)
29 | HMVVLPGEVLRINVIQEGKEHGQGVGYMDDGTMVVIENGREFIGEYMEVNVTKVLQTAAGRMIFGRVD | -0.917
30 | HMTRAETPMAFIRAMVEAYTERGLDPNQALRKAQITPSQLKSTNARVTTLQMEWMSETAMREL | -0.464
31 | HMHPRDREENKYLLLRGERIYEESIGEKRLYVEAALHKYEKALSSYDTGLIDEAKEEFKKFLEEIEEA | -0.438
32 | HMLKNYATPEQRAQLDMLKDKGIIGENELMQLGKYPSQDKASEVLENHADAVKMLDSDEISNRAEAIRSHD | 0.22
33 | HMSKHATLLEALADLSVKLKPHSQLPSERALSEEYGVSRMTLRRAIDVLQARGYIYSVPSKGLFVSEP | -0.0584
34 | HMVTIYQRIMLVLEDKQVSVNALSKLVDMSQTTLNTQLKGERTLSANVVAKVLVAYPDVSAEWLMRGVGTM | -0.426
35 | HMNESEALIARIENLPPIEDLTEKHAEEVKALMTVYSKLKMSDRILVTNYGVLKKDFDALVKKGFLTNED | 0.0976
36 | HMLARPTANELVKEMQRRAKEQRTELPPDAARDLLERSGQDQFLLGNEVDKLAALSGYTTITREMVAQAGT | 0.0328
37 | HMIHFDHPERSILDTMLYEKKGMTAQSARNRLAAYQFQGEDVFKPVSVLSGGELSRITLAIKNAMADK | 0.0479
38 | HMNEVETWSVQADGATGRIDKWLAEQNEWSRSQVQEWLKAGRVEVDGRVVKPNYKLSGTESIAVHIPEAV | -0.0787
39 | HMSIQELMNSKDLSSFKVEMLSDEDIAKYKGLLQNSGLTEAQAEQMALQRGLPSSELLKLKARLSGI | 0.0846
40 | HMIILYTDEQQRIIDRLNEFIGEQPSQNEAAKLLGISAPILTNLRKGTYTGTVDKFMNKLAAYFNIKADLG | -0.372
41 | HMKGKDLQDAVVTVVGGAENWNAIRAWAQASASDSEKREINAAFQSGKLMATMMAERLALAYQQSG | 0.0105
42 | HMSGLLTTSKLAQKHKMKTEPMLEKLTAAGYLEWRDDKHSLTEQGKKAGGQFKTGRFGAYFLWPEDLV | 0.116
43 | HMLNMTLGDRIRSRREELRMSQEELATRLGYKSRSTIAKIESGENDLTQSKIVAFAEALSTTARWLLDY | 0.0651
44 | HMTHFRTDERRREILSTIEADGRVSVSEIASRFDVSPVTIRSDLNYLAIQGKLKRVRGGAVLLDH | 0.275
45 | HMNEDDQLLKVLLAEPLRLEELYNLDLKPQGPYNLQTWIMVHLTELERDGLIARFPDGRYGPAR | -1.57
46 | HMEFPLSPHQYSVLRLMAQGLSNKQIAERLFLSENTVKGYVQEVLRRLGARNRLEAVMIANRRGWL | -0.606
47 | HMDGIIIPDVSGKSYAEAVATLNEKGFKVEKGEDAGSSLAKDLVSYTNPAAGNRAKSGATISVFVSTGANA | -0.0718
48 | HMIITLNIENLKRARENAGLTQTQAAQKIGVSDGTYKNYEQGKREPNGDKIVTIANAFGVTTDYLLGR | 0.22
49 | HMAEKNALWEEDAVYAADSSALARDGYDAIVRTDKGGKKGYLVVGTGGRERFMPLQTLVMLGYLKK | -0.0478
50 | HMITKENYLEKIKEIKVNEFPASMRELYDFFNEATRNGTDWSAYEEGNVKYVVDAYLERLNLLYKSN | -0.892
51 | HMIKVAANESNRSDVLEIVRLFRVRVVDVNPESLTIEATGAEGKIDALLGLLEHYGVIELVRSGAVAVT | -1.1
52 | HMVMRHTVEHDAELLAVLRLMYPASSSTKLRKMLTQGRVLVNDDVVHRAKHGVASGDTVDVIVRQRAE | 0.0827
53 | HMLVDWNYLEGKRGVTTTPLTPSGKARFGDDVVNVLSDGVLVSTGTPVRVLQVLGNRVLVEPLDG | 0.0163
54 | HMNNPISMQKLRQVIRLYGQGKGTKSINSMLGVSRNTIKKYLQVYHSSGINYESFLAMSDKELSAVFLV | 0.226
55 | HMYLPGERMRIKITALGSNPKQGVGYLPDGMMVVVDEAATLVGRFVEIEFVKFLQTNSGRMMFAKVAT | -0.02

Source: the domain aggregation screens of Martell et al. (2025)
